Read-outs that look alike come from different tables or passages of the source.
T1: ScVLa capsid protein Cap, full size (697 amino acids) (ScVLa virus of Saccharomyces cerevisiae)
T1 chain: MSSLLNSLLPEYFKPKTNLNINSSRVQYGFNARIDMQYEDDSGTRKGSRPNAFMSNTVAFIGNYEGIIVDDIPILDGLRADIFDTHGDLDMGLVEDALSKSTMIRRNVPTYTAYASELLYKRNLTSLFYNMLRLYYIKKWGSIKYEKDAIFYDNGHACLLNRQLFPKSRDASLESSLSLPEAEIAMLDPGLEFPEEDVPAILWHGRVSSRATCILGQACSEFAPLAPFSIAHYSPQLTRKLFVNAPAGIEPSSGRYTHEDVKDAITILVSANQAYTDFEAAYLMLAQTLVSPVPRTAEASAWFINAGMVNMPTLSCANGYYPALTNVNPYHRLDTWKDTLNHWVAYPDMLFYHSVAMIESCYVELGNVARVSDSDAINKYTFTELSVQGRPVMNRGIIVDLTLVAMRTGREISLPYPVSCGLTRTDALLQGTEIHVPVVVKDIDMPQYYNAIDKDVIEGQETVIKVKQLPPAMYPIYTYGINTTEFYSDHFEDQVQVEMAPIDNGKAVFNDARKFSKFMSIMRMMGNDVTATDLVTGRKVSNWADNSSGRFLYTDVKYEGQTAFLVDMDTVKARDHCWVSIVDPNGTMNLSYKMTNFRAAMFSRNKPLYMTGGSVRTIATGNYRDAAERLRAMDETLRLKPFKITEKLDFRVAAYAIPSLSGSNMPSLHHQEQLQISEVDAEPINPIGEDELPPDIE

T2: ScVL1 capsid protein Cap, full size (680 amino acids) (ScVL1 virus of Saccharomyces cerevisiae)
T2 chain: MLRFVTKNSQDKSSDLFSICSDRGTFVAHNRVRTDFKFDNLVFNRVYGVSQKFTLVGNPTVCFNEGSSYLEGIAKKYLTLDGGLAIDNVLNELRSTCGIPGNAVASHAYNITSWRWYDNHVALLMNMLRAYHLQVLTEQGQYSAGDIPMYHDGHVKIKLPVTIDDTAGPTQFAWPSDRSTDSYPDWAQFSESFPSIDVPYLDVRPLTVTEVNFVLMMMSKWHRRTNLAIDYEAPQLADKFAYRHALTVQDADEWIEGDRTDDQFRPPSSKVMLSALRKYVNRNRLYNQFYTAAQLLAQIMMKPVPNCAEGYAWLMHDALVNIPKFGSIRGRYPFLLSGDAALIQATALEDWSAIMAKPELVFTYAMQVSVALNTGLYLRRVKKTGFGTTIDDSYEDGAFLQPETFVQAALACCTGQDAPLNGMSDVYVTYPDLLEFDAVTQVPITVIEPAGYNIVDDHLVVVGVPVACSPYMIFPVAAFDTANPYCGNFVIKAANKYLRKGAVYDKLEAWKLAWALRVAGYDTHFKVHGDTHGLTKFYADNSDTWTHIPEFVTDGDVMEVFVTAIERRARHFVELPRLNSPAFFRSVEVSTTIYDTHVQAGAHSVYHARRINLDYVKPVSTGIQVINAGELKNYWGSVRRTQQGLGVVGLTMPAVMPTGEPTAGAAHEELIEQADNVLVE

B1: La Cap N-terminal fragment of nonsense mutant pGLa1m5 (S419O, aa 1-418) (other)
chain: MSSLLNSLLPEYFKPKTNLNINSSRVQYGFNARIDMQYEDDSGTRKGSRPNAFMSNTVAFIGNYEGIIVDDIPILDGLRADIFDTHGDLDMGLVEDALSKSTMIRRNVPTYTAYASELLYKRNLTSLFYNMLRLYYIKKWGSIKYEKDAIFYDNGHACLLNRQLFPKSRDASLESSLSLPEAEIAMLDPGLEFPEEDVPAILWHGRVSSRATCILGQACSEFAPLAPFSIAHYSPQLTRKLFVNAPAGIEPSSGRYTHEDVKDAITILVSANQAYTDFEAAYLMLAQTLVSPVPRTAEASAWFINAGMVNMPTLSCANGYYPALTNVNPYHRLDTWKDTLNHWVAYPDMLFYHSVAMIESCYVELGNVARVSDSDAINKYTFTELSVQGRPVMNRGIIVDLTLVAMRTGREISLPYPV
B2: L1 Cap N-terminal fragment of nonsense mutant pGL1m14 (Y485O, aa 1-484) (other)
chain: MLRFVTKNSQDKSSDLFSICSDRGTFVAHNRVRTDFKFDNLVFNRVYGVSQKFTLVGNPTVCFNEGSSYLEGIAKKYLTLDGGLAIDNVLNELRSTCGIPGNAVASHAYNITSWRWYDNHVALLMNMLRAYHLQVLTEQGQYSAGDIPMYHDGHVKIKLPVTIDDTAGPTQFAWPSDRSTDSYPDWAQFSESFPSIDVPYLDVRPLTVTEVNFVLMMMSKWHRRTNLAIDYEAPQLADKFAYRHALTVQDADEWIEGDRTDDQFRPPSSKVMLSALRKYVNRNRLYNQFYTAAQLLAQIMMKPVPNCAEGYAWLMHDALVNIPKFGSIRGRYPFLLSGDAALIQATALEDWSAIMAKPELVFTYAMQVSVALNTGLYLRRVKKTGFGTTIDDSYEDGAFLQPETFVQAALACCTGQDAPLNGMSDVYVTYPDLLEFDAVTQVPITVIEPAGYNIVDDHLVVVGVPVACSPYMIFPVAAFDTANP
B3: L1 Cap N-terminal fragment of pGL1d4 (aa 1-435) (other)
chain: MLRFVTKNSQDKSSDLFSICSDRGTFVAHNRVRTDFKFDNLVFNRVYGVSQKFTLVGNPTVCFNEGSSYLEGIAKKYLTLDGGLAIDNVLNELRSTCGIPGNAVASHAYNITSWRWYDNHVALLMNMLRAYHLQVLTEQGQYSAGDIPMYHDGHVKIKLPVTIDDTAGPTQFAWPSDRSTDSYPDWAQFSESFPSIDVPYLDVRPLTVTEVNFVLMMMSKWHRRTNLAIDYEAPQLADKFAYRHALTVQDADEWIEGDRTDDQFRPPSSKVMLSALRKYVNRNRLYNQFYTAAQLLAQIMMKPVPNCAEGYAWLMHDALVNIPKFGSIRGRYPFLLSGDAALIQATALEDWSAIMAKPELVFTYAMQVSVALNTGLYLRRVKKTGFGTTIDDSYEDGAFLQPETFVQAALACCTGQDAPLNGMSDVYVTYPDLLE
B4: L1 Cap N-terminal fragment of nonsense mutant pGL1m12 (E435O, aa 1-434) (other)
chain: MLRFVTKNSQDKSSDLFSICSDRGTFVAHNRVRTDFKFDNLVFNRVYGVSQKFTLVGNPTVCFNEGSSYLEGIAKKYLTLDGGLAIDNVLNELRSTCGIPGNAVASHAYNITSWRWYDNHVALLMNMLRAYHLQVLTEQGQYSAGDIPMYHDGHVKIKLPVTIDDTAGPTQFAWPSDRSTDSYPDWAQFSESFPSIDVPYLDVRPLTVTEVNFVLMMMSKWHRRTNLAIDYEAPQLADKFAYRHALTVQDADEWIEGDRTDDQFRPPSSKVMLSALRKYVNRNRLYNQFYTAAQLLAQIMMKPVPNCAEGYAWLMHDALVNIPKFGSIRGRYPFLLSGDAALIQATALEDWSAIMAKPELVFTYAMQVSVALNTGLYLRRVKKTGFGTTIDDSYEDGAFLQPETFVQAALACCTGQDAPLNGMSDVYVTYPDLL
B5: L1 Cap N-terminal fragment of pGL1d5 (aa 1-433) (other)
chain: MLRFVTKNSQDKSSDLFSICSDRGTFVAHNRVRTDFKFDNLVFNRVYGVSQKFTLVGNPTVCFNEGSSYLEGIAKKYLTLDGGLAIDNVLNELRSTCGIPGNAVASHAYNITSWRWYDNHVALLMNMLRAYHLQVLTEQGQYSAGDIPMYHDGHVKIKLPVTIDDTAGPTQFAWPSDRSTDSYPDWAQFSESFPSIDVPYLDVRPLTVTEVNFVLMMMSKWHRRTNLAIDYEAPQLADKFAYRHALTVQDADEWIEGDRTDDQFRPPSSKVMLSALRKYVNRNRLYNQFYTAAQLLAQIMMKPVPNCAEGYAWLMHDALVNIPKFGSIRGRYPFLLSGDAALIQATALEDWSAIMAKPELVFTYAMQVSVALNTGLYLRRVKKTGFGTTIDDSYEDGAFLQPETFVQAALACCTGQDAPLNGMSDVYVTYPDL
B6: L1 Cap N-terminal fragment of nonsense mutant pGL1m15 (G501O, aa 1-500) (other)
chain: MLRFVTKNSQDKSSDLFSICSDRGTFVAHNRVRTDFKFDNLVFNRVYGVSQKFTLVGNPTVCFNEGSSYLEGIAKKYLTLDGGLAIDNVLNELRSTCGIPGNAVASHAYNITSWRWYDNHVALLMNMLRAYHLQVLTEQGQYSAGDIPMYHDGHVKIKLPVTIDDTAGPTQFAWPSDRSTDSYPDWAQFSESFPSIDVPYLDVRPLTVTEVNFVLMMMSKWHRRTNLAIDYEAPQLADKFAYRHALTVQDADEWIEGDRTDDQFRPPSSKVMLSALRKYVNRNRLYNQFYTAAQLLAQIMMKPVPNCAEGYAWLMHDALVNIPKFGSIRGRYPFLLSGDAALIQATALEDWSAIMAKPELVFTYAMQVSVALNTGLYLRRVKKTGFGTTIDDSYEDGAFLQPETFVQAALACCTGQDAPLNGMSDVYVTYPDLLEFDAVTQVPITVIEPAGYNIVDDHLVVVGVPVACSPYMIFPVAAFDTANPYCGNFVIKAANKYLRK

Experiments:
[1] = target: ScVL1 capsid protein Cap, full size (680 amino acids) (ScVL1 virus of Saccharomyces cerevisiae)
[2] = target: ScVLa capsid protein Cap, full size (697 amino acids) (ScVLa virus of Saccharomyces cerevisiae)
[3] = target: T1, ScVLa capsid protein Cap, full size …; experiment: cell-based or functional assay
[4] = target: T2, ScVL1 capsid protein Cap, full size …; experiment: cell-based or functional assay

Molecule	Curing (%) of ScVL1 [4]	further results
L1 Cap N-terminal fragment of pGL1d2 (aa 1-603)	–	Curing (%) of ScVL1 [1]: 100%
La Cap N-terminal fragment of pGLa1d3 (aa 1-443)	–	Curing (%) of ScVLa [2]: 100%
B1	–	Curing (%) of ScVLa [3]: < 10%
MLRFVTKNS [L1 Cap N-terminal fragment of nonsense mutant pGL1m13 (Q10O, aa 1-9)]	< 5%	–
B2	< 5%	–
B3	< 5%	–
B4	< 5%	–
MSSLLNSLLP [La Cap N-terminal fragment of nonsense mutant pGLa1m6 (E11O, aa 1-10)]	–	Curing (%) of ScVLa [3]: < 10%
B5	< 5%	–
B6	< 5%	–
